T1: His-SUMO-Met4-Strep-tagII-HA (S. cerevisiae, UniProt P32389 1-672)
T1 construct: Met4, transcription factor of the MET regulon, Saccharomyces cerevisiae; MET4 ORF cloned into the pET His6 Sumo vector; fractions with pure, full-length Met4 were pooled; No cleavage of His-SUMO is described; also called recombinant Met4; bacterially purified Met4; source: E. coli BL21, purified (Ni-NTA, Strep-Tactin Sepharose); not shown: HA, C-terminal, kept
T1 sequence (looked up): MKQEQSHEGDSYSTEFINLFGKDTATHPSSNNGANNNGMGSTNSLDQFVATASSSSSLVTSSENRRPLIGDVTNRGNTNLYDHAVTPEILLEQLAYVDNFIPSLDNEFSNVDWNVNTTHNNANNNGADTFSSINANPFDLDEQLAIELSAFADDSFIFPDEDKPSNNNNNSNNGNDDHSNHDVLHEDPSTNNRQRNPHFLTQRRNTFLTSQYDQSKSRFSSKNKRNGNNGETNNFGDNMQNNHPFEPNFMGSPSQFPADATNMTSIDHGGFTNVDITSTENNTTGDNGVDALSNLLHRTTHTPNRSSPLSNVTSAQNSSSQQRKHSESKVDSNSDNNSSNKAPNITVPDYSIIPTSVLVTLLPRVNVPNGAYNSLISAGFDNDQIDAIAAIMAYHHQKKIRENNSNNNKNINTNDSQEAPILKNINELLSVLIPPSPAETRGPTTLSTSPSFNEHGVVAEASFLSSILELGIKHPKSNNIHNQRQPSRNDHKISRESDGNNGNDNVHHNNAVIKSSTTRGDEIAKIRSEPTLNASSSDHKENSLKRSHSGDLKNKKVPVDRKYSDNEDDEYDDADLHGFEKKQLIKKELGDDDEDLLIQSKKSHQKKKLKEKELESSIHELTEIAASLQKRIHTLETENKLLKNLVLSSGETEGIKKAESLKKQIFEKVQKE


Target: T1, His-SUMO-Met4-Strep-tagII-HA
Test: pull-down; Met30-Flag complex isolated on anti-FLAG M2 protein G dynabeads from lysate of rich or -sulfur cells with 1 mM DTT, 1 mM diamide or nothing added; beads washed, then incubated with 1 ug purified recombinant Met4 in 1 mL IP buffer (50 mM Tris pH 7.5, 150 mM NaCl, 1% NP-40) with or without 1 mM DTT, 2 h, 4°C; Western blots for Met4 and Met30; mutants from cells grown in rich media
Conditions: both partners purified

Row | binding result | Binder
1 | binds | Met30-Flag (natural protein, S. cerevisiae, UniProt P39014 1-640, looked up, Met30, F-box protein of the SCF^Met30 E3 ubiquitin ligase, Saccharomyces cerevisiae (CEN.PK background); endogenous locus tagged at the C-terminus; 23 cysteines; Isolated from yeast as a Met30-Flag complex, so other SCF components may be on the beads; Cysteines are reduced or oxidised depending on the IP condition (+DTT, -DTT, +diamide); also called SCF^Met30-Flag; Flag-tagged Met30; source: S. …) MRRERQRMMSFEDKDKDDLDNSNSNNSSEMTDTAMMPPLKRLLITGSSDDLAQGSSGKKKMTMATRSPSSSPDLATNDSGTRVQPLPEYNFTKFCYRHNPDIQFSPTHTACYKQDLKRTQEINANIAKLPLQEQSDIHHIISKYSNSNDKIRKLILDGILSTSCFPQLSYISSLVTHMIKIDFISILPQELSLKILSYLDCQSLCNATRVCRKWQKLADDDRVWYHMCEQHIDRKCPNCGWGLPLLHMKRARIQQNSTGSSSNADIQTQTTRPWKVIYRERFKVESNWRKGHCRIQEFKGHMDGVLTLQFNYRLLFTGSYDSTIGIWDLFTGKLIRRLSGHSDGVKTLYFDDRKLITGSLDKTIRVWNYITGECISTYRGHSDSVLSVDSYQKVIVSGSADKTVKVWHVESRTCYTLRGHTEWVNCVKLHPKSFSCFSCSDDTTIRMWDIRTNSCLKVFRGHVGQVQKIIPLTIKDVENLATDNTSDGSSPQDDPTMTDGADESDTPSNEQETVLDENIPYPTHLLSCGLDNTIKLWDVKTGKCIRTQFGHVEGVWDIAADNFRIISGSHDGSIKVWDLQSGKCMHTFNGRRLQRETQHTQTQSLGDKVAPIACVCIGDSECFSGDEFGCVKMYKFDLND
2 | binds | Met30 C614/616/622/630S (Flag-tagged) (natural protein, S. cerevisiae, UniProt P39014 1-640, looked up, Met30, F-box protein, Saccharomyces cerevisiae (CEN.PK background), with four cysteine to serine mutations in the WD-40 repeat region; whole gene locus with tag transformed into yeast; source: S. cerevisiae CEN.PK mutant strain grown in rich media, immunopurified on anti-FLAG M2 magnetic beads; not shown: Flag, C-terminal, kept) MRRERQRMMSFEDKDKDDLDNSNSNNSSEMTDTAMMPPLKRLLITGSSDDLAQGSSGKKKMTMATRSPSSSPDLATNDSGTRVQPLPEYNFTKFCYRHNPDIQFSPTHTACYKQDLKRTQEINANIAKLPLQEQSDIHHIISKYSNSNDKIRKLILDGILSTSCFPQLSYISSLVTHMIKIDFISILPQELSLKILSYLDCQSLCNATRVCRKWQKLADDDRVWYHMCEQHIDRKCPNCGWGLPLLHMKRARIQQNSTGSSSNADIQTQTTRPWKVIYRERFKVESNWRKGHCRIQEFKGHMDGVLTLQFNYRLLFTGSYDSTIGIWDLFTGKLIRRLSGHSDGVKTLYFDDRKLITGSLDKTIRVWNYITGECISTYRGHSDSVLSVDSYQKVIVSGSADKTVKVWHVESRTCYTLRGHTEWVNCVKLHPKSFSCFSCSDDTTIRMWDIRTNSCLKVFRGHVGQVQKIIPLTIKDVENLATDNTSDGSSPQDDPTMTDGADESDTPSNEQETVLDENIPYPTHLLSCGLDNTIKLWDVKTGKCIRTQFGHVEGVWDIAADNFRIISGSHDGSIKVWDLQSGKCMHTFNGRRLQRETQHTQTQSLGDKVAPIASVSIGDSESFSGDEFGSVKMYKFDLND
3 | binds | Met30 C414S (Flag-tagged) (natural protein, S. cerevisiae, UniProt P39014 1-640, looked up, Met30, F-box protein, Saccharomyces cerevisiae (CEN.PK background), with the point mutation C414S; whole gene locus with tag transformed into yeast; source: S. cerevisiae CEN.PK mutant strain grown in rich media, immunopurified on anti-FLAG M2 magnetic beads; not shown: Flag, C-terminal, kept) MRRERQRMMSFEDKDKDDLDNSNSNNSSEMTDTAMMPPLKRLLITGSSDDLAQGSSGKKKMTMATRSPSSSPDLATNDSGTRVQPLPEYNFTKFCYRHNPDIQFSPTHTACYKQDLKRTQEINANIAKLPLQEQSDIHHIISKYSNSNDKIRKLILDGILSTSCFPQLSYISSLVTHMIKIDFISILPQELSLKILSYLDCQSLCNATRVCRKWQKLADDDRVWYHMCEQHIDRKCPNCGWGLPLLHMKRARIQQNSTGSSSNADIQTQTTRPWKVIYRERFKVESNWRKGHCRIQEFKGHMDGVLTLQFNYRLLFTGSYDSTIGIWDLFTGKLIRRLSGHSDGVKTLYFDDRKLITGSLDKTIRVWNYITGECISTYRGHSDSVLSVDSYQKVIVSGSADKTVKVWHVESRTSYTLRGHTEWVNCVKLHPKSFSCFSCSDDTTIRMWDIRTNSCLKVFRGHVGQVQKIIPLTIKDVENLATDNTSDGSSPQDDPTMTDGADESDTPSNEQETVLDENIPYPTHLLSCGLDNTIKLWDVKTGKCIRTQFGHVEGVWDIAADNFRIISGSHDGSIKVWDLQSGKCMHTFNGRRLQRETQHTQTQSLGDKVAPIACVCIGDSECFSGDEFGCVKMYKFDLND
